# System: engineered chimeric receptor SEQ ID NO: 33 and its mutants (human α7-nAChR ligand binding domain / human GlyRα1 ion pore domain) in Lenti-X 293T cells
# Assay: YFP fluorescence quenching anion reporter plate reader assay (percent quench, EC50)
# Assay type: cell-based
# Details: for YFP fluorescence quenching using CNL001 (percent quench): receptor named in row; for YFP fluorescence quenching using Facinicline, 30 nM fac: ligand Facinicline 30 nM; for YFP fluorescence quenching using Facinicline, 300 nM fac: ligand Facinicline 300 nM; for YFP fluorescence quenching using Facinicline, 30 uM fac: ligand Facinicline 30 uM; for YFP fluorescence quenching using TC-6987, 1 uM tc6987: ligand TC-6987 1 uM; for YFP fluorescence quenching using TC-6987, 10 uM tc6987: ligand TC-6987 10 uM; for YFP fluorescence quenching using TC-6987, 500 uM tc6987: ligand TC-6987 500 uM; for YFP fluorescence quenching using Varenicline, 3 nM var: ligand Varenicline 3 nM; for YFP fluorescence quenching using Varenicline, 30 nM var: ligand Varenicline 30 nM; for YFP fluorescence quenching using Varenicline, 300 nM var: ligand Varenicline 300 nM; for YFP fluorescence quenching using Varenicline, 500 nM var: ligand Varenicline 500 nM; for YFP fluorescence quenching using Varenicline, 1 uM var: ligand Varenicline 1 uM
# In short: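 Percent quench compares mean YFP signal over the final 10 s with the 15 s baseline before ligand, added in iodide-containing extracellular solution (pH 7.2). Cells were LX293T carrying a YFP anion reporter, transiently transfected with the channel construct; plates were preincubated 30 min at 37 °C.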
# [1] = 1 nM CNL001, first column so headed
# [2] = 1 nM CNL001, second column so headed
# [3] = 3 nM brd (TC-5619/Bradanicline)
# [4] = 10 nM CNL001, first column so headed
# [5] = 10 nM CNL001, second column so headed
# [6] = 30 nM brd (TC-5619/Bradanicline)
# [7] = 50 nM CNL001, first column so headed
# [8] = 50 nM CNL001, second column so headed
# [9] = 100 nM CNL001, first column so headed
# [10] = 100 nM CNL001, second column so headed
# [11] = 300 nM brd (TC-5619/Bradanicline)
# [12] = 1 uM CNL001, first column so headed
# [13] = 1 uM CNL001, second column so headed
molecule,measurement,setting,value
"CODA337: engineered receptor: L131N in SEQ ID NO: 33 (protein, synthetic sequence of chimeric LGIC) MRCSPGGVWLALAASLLHVSLQGEFQRKLYKELVKNYNPLERPVANDSQPLTVYFSLSLLQIMDVDEKNQVLTTNIWLQMSWTDHYLQWNVSEYPGVKTVRFPDGQIWKPDILLYNSADERFDATFHTNVNVNSSGHCQYLPPGIFKSSCPMDLKNFPMDVQTCKLKFGSWSYGGWSLDLQMQEADISGYIPNGEWDLVGIPGKRSERFYECCKEPYPDVTFTVTMRRRMGYYLIQMYIPSLLIVILSWISFWINMDAAPARVGLGITTVLTMTTQSSGSRASLPKVSYVKAIDIWMAVCLLFVFSALLEYAAVNFVSRQHKELLRFRRKRRHHKSPMLNLFQEDEAGEGRFNFSAYGMGPACLQAKDGISVKGANNSNTTNPPPAPSKSPEEMRKLFIQRAKKIDKISRIGFPMAFLIFNMFYWIIYKIVRREDVHNQ",YFP fluorescence quenching using CNL001 (percent quench),[1],76.917%
same,YFP fluorescence quenching using CNL001 (percent quench),[2],79.554%
same,YFP fluorescence quenching using TC-5619/Bradanicline (percent quench),[3],71.02%
same,YFP fluorescence quenching using CNL001 (percent quench),[4],79.479%
same,YFP fluorescence quenching using CNL001 (percent quench),[5],79.506%
same,YFP fluorescence quenching using TC-6683 (percent quench),30 nM TC-6683,−11.51%
same,YFP fluorescence quenching using TC-5619/Bradanicline (percent quench),[6],78.43%
same,YFP fluorescence quenching using CNL001 (percent quench),[7],81.465%
same,YFP fluorescence quenching using CNL001 (percent quench),[8],81.297%
same,YFP fluorescence quenching using ABT-126 (percent quench),50 nM abt (ABT-126),−11.64%
same,YFP fluorescence quenching using CNL001 (percent quench),[9],82.619%
same,YFP fluorescence quenching using CNL001 (percent quench),[10],81.722%
same,YFP fluorescence quenching (percent quench),100 nM CNL002,76.37%
same,YFP fluorescence quenching using ABT-126 (percent quench),100 nM abt (ABT-126),34.79%
same,YFP fluorescence quenching using AZD-0328 (percent quench),100 nM azd0328,82.1%
same,YFP fluorescence quenching using TC-6683 (percent quench),300 nM TC-6683,−13.17%
same,YFP fluorescence quenching using ABT-126 (percent quench),300 nM abt (ABT-126),60.08%
same,YFP fluorescence quenching using AZD-0328 (percent quench),300 nM azd0328,82.52%
same,YFP fluorescence quenching using TC-5619/Bradanicline (percent quench),[11],77.12%
same,YFP fluorescence quenching using CNL001 (percent quench),[12],81.96%
same,YFP fluorescence quenching using CNL001 (percent quench),[13],81.773%
same,YFP fluorescence quenching (percent quench),1 uM CNL002,80.18%
same,YFP fluorescence quenching using ABT-126 (percent quench),1 uM abt (ABT-126),65.99%
same,YFP fluorescence quenching using TC-6683 (percent quench),3 uM TC-6683,−5.46%
same,YFP fluorescence quenching (percent quench),10 uM ach (acetylcholine),28.32%
same,YFP fluorescence quenching (percent quench),30 uM CNL002,80.93%
same,YFP fluorescence quenching using TC-6683 (percent quench),30 uM TC-6683,8.53%
same,YFP fluorescence quenching using AZD-0328 (percent quench),30 uM azd0328,82.32%
same,YFP fluorescence quenching using TC-6683 (percent quench),100 uM TC-6683,14.41%
same,YFP fluorescence quenching (percent quench),100 uM ach (acetylcholine),81.8%
same,YFP fluorescence quenching (percent quench),1 mM ach (acetylcholine),71.22%
same,YFP fluorescence quenching (percent quench),3 mM ach (acetylcholine),73.7%
same,"YFP fluorescence quenching using Facinicline, 30 nM fac",,82.25
same,"YFP fluorescence quenching using Facinicline, 300 nM fac",,83.59
same,"YFP fluorescence quenching using Facinicline, 30 uM fac",,82.82
same,"YFP fluorescence quenching using TC-6987, 1 uM tc6987",,79.06
same,"YFP fluorescence quenching using TC-6987, 10 uM tc6987",,82.36
same,"YFP fluorescence quenching using TC-6987, 500 uM tc6987",,80.19
same,"YFP fluorescence quenching using Varenicline, 3 nM var",first column,3.093
same,"YFP fluorescence quenching using Varenicline, 3 nM var",second column,12.327
same,"YFP fluorescence quenching using Varenicline, 30 nM var",first column,77.097
same,"YFP fluorescence quenching using Varenicline, 30 nM var",second column,77.653
same,"YFP fluorescence quenching using Varenicline, 300 nM var",first column,79.446
same,"YFP fluorescence quenching using Varenicline, 300 nM var",second column,79.998
same,"YFP fluorescence quenching using Varenicline, 500 nM var",first column,80.691
same,"YFP fluorescence quenching using Varenicline, 500 nM var",second column,80.309
same,"YFP fluorescence quenching using Varenicline, 1 uM var",first column,80.258
same,"YFP fluorescence quenching using Varenicline, 1 uM var",second column,79.509
"CODA945: engineered receptor: Q139E in SEQ ID NO: 33 (protein, synthetic sequence of chimeric LGIC) MRCSPGGVWLALAASLLHVSLQGEFQRKLYKELVKNYNPLERPVANDSQPLTVYFSLSLLQIMDVDEKNQVLTTNIWLQMSWTDHYLQWNVSEYPGVKTVRFPDGQIWKPDILLYNSADERFDATFHTNVLVNSSGHCEYLPPGIFKSSCPMDLKNFPMDVQTCKLKFGSWSYGGWSLDLQMQEADISGYIPNGEWDLVGIPGKRSERFYECCKEPYPDVTFTVTMRRRMGYYLIQMYIPSLLIVILSWISFWINMDAAPARVGLGITTVLTMTTQSSGSRASLPKVSYVKAIDIWMAVCLLFVFSALLEYAAVNFVSRQHKELLRFRRKRRHHKSPMLNLFQEDEAGEGRFNFSAYGMGPACLQAKDGISVKGANNSNTTNPPPAPSKSPEEMRKLFIQRAKKIDKISRIGFPMAFLIFNMFYWIIYKIVRREDVHNQ",YFP fluorescence quenching using CNL001 (percent quench),[1],6.65%
same,YFP fluorescence quenching using CNL001 (percent quench),[2],13.512%
same,YFP fluorescence quenching using TC-5619/Bradanicline (percent quench),[3],14.15%
same,YFP fluorescence quenching using CNL001 (percent quench),[4],78.678%
same,YFP fluorescence quenching using CNL001 (percent quench),[5],82.723%
same,YFP fluorescence quenching using TC-6683 (percent quench),30 nM TC-6683,−26.47%
same,YFP fluorescence quenching using TC-5619/Bradanicline (percent quench),[6],78.18%
same,YFP fluorescence quenching using CNL001 (percent quench),[7],84.91%
same,YFP fluorescence quenching using CNL001 (percent quench),[8],84.849%
same,YFP fluorescence quenching using ABT-126 (percent quench),50 nM abt (ABT-126),−8.27%
same,YFP fluorescence quenching using CNL001 (percent quench),[9],85.046%
same,YFP fluorescence quenching using CNL001 (percent quench),[10],84.642%
same,YFP fluorescence quenching (percent quench),100 nM CNL002,60.5%
same,YFP fluorescence quenching using ABT-126 (percent quench),100 nM abt (ABT-126),4.76%
same,YFP fluorescence quenching using AZD-0328 (percent quench),100 nM azd0328,−5.79%
same,YFP fluorescence quenching using TC-6683 (percent quench),300 nM TC-6683,−18.62%
same,YFP fluorescence quenching using ABT-126 (percent quench),300 nM abt (ABT-126),30.88%
same,YFP fluorescence quenching using AZD-0328 (percent quench),300 nM azd0328,58.47%
same,YFP fluorescence quenching using TC-5619/Bradanicline (percent quench),[11],76.8%
same,YFP fluorescence quenching using CNL001 (percent quench),[12],85.493%
same,YFP fluorescence quenching using CNL001 (percent quench),[13],86.071%
same,YFP fluorescence quenching (percent quench),1 uM CNL002,75.41%
same,YFP fluorescence quenching using ABT-126 (percent quench),1 uM abt (ABT-126),60.66%
same,YFP fluorescence quenching using TC-6683 (percent quench),3 uM TC-6683,−13.39%
same,YFP fluorescence quenching (percent quench),10 uM ach (acetylcholine),−1.25%
same,YFP fluorescence quenching (percent quench),30 uM CNL002,77.46%
same,YFP fluorescence quenching using TC-6683 (percent quench),30 uM TC-6683,−16.6%
same,YFP fluorescence quenching using AZD-0328 (percent quench),30 uM azd0328,66.57%
same,YFP fluorescence quenching using TC-6683 (percent quench),100 uM TC-6683,−12.89%
same,YFP fluorescence quenching (percent quench),100 uM ach (acetylcholine),71.21%
same,YFP fluorescence quenching (percent quench),1 mM ach (acetylcholine),71.79%
same,YFP fluorescence quenching (percent quench),3 mM ach (acetylcholine),76.04%
same,"YFP fluorescence quenching using Facinicline, 30 nM fac",,−7.16
same,"YFP fluorescence quenching using Facinicline, 300 nM fac",,71.17
same,"YFP fluorescence quenching using Facinicline, 30 uM fac",,72.14
same,"YFP fluorescence quenching using TC-6987, 1 uM tc6987",,−0.97
same,"YFP fluorescence quenching using TC-6987, 10 uM tc6987",,21.53
same,"YFP fluorescence quenching using TC-6987, 500 uM tc6987",,7.39
same,"YFP fluorescence quenching using Varenicline, 3 nM var",first column,8.207
same,"YFP fluorescence quenching using Varenicline, 3 nM var",second column,7.835
same,"YFP fluorescence quenching using Varenicline, 30 nM var",first column,9.509
same,"YFP fluorescence quenching using Varenicline, 30 nM var",second column,10.204
same,"YFP fluorescence quenching using Varenicline, 300 nM var",first column,9.818
same,"YFP fluorescence quenching using Varenicline, 300 nM var",second column,12.539
same,"YFP fluorescence quenching using Varenicline, 500 nM var",first column,16.762
same,"YFP fluorescence quenching using Varenicline, 500 nM var",second column,15.21
same,"YFP fluorescence quenching using Varenicline, 1 uM var",first column,48.292
same,"YFP fluorescence quenching using Varenicline, 1 uM var",second column,54.096
